Here are results for one molecule from patent US7541169B2, “Sulfotransferase sequence variants” (Mayo Foundation for Medical Education and Research, priority 2001, dated 2009).

In the series the test system is SULT1C1. Nature of the series: SULT1C1 enzyme activity assay: sulfate conjugation of 4-nitrophenol with 35S-PAPS, COS-1 cytosol of recombinant allozymes. It is filed as biochemical, human. The protocol: In some embodiments, activity of SULT1C1 polypeptides is altered relative to the reference SULT1C1. […] Other allozymes can have increased activity relative to the reference SULT1C1. Activity of SULT1C1 polypeptides can be assessed in vitro using a sulfate acceptor substrate such as 4-nitrophenol (4-NP, Sigma Chemical Co., St. Louis, Mo.) and a donor sulfate molecule such as PAPS. In general, recombinant SULT1C1 polypeptides can be incubated at 37° C. with 10 mM of sulfate acceptor substrate in a potassium phosphate buffer (5 mM, pH 7.4) and 0.4 μM labeled PAPS (e.g., ^35S-PAPS from New England Nuclear Life Science Products, Inc., Boston Mass.). Reactions can be stopped by precipitating PAPS and SULT1C1 polypeptide (e.g., with barium hydroxide, barium acetate, and zinc sulfate). After centrifugation of the reaction, radioactivity in the supernatant is assessed. SULT1C1 activity is expressed as nmoles of sulfate conjugated product formed per hour of incubation. See, Campbell, N. R. C. et al., Biochem. Pharmacol., 36:1435-1446 (1987).
Other biochemical properties of allozymes, such as apparent Km values, also can be altered relative to the reference SULT1C1. Apparent Km values can be calculated, for example, by using the method of Wilkinson with a computer program written by Cleland. Wilkinson, Biochem. J., 80:324-332 (1961); and Cleland, Nature, 198:463-365 (1963). As described herein, the apparent Km values for PAPS vary 7-fold among the allozymes tested (Asp60Ala, Arg73Gln, Phe193Leu, Asp200Val, Thr239Ala, and Ser255Ala).
COS-1 Cell Expression: Nine different SULT1C1 expression constructs were made using the p91023(B) expression vector. See, Wong et al., Science (1985) 228:810-815, for a description of the p91023(B) vector. Eight of the constructs were designed to express variant SULT1C1 polypeptides, while the remaining construct was designed to express a wild type SULT1C1. All SULT1C1 cDNA sequences used to create the expression constructs were created by site directed mutagenesis using the method described by Ho et al., Gene (1989) 77(l):51-9. Each SULT1C1 cDNA was amplified by PCR and subcloned into the EcoRI restriction site of the eukaryotic expression vector p91023(B). After subcloning, all inserts were sequenced to assure that no spurious nucleotide point mutations had been introduced during the PCR amplifications. […] As a control, a transfection was also performed with “empty” p91023(B), i.e., vector lacking an insert, to make it possible to correct for endogenous COS-1 cell SULT activity. The control plasmid pSV-β-galactosidase (Promega, Madison, Wis.) was cotransfected with each SULT1C1 construct to make it possible to correct for transfection efficiency. Two independent transfections, each consisting of three separate plates, were performed with each of the expression constructs. After 48 hours in culture, the transfected cells were harvested and high speed supernatant (HSS) cytosol preparations were prepared as described by Wood, T. C. et al., Biochem. Biophys. Res. Commun., 198:1119-1127 (1994). Aliquots of these cytosol preparations were stored at −80° C. prior to assay.
Enzyme Assays: β-galactosidase activity in each of the COS-1 HSS preparations was measured with the β-galactosidase Enzyme Assay System (Promega, Madison, Wis.). SULT1C1 enzyme activity was measured with an assay that involves sulfate conjugation of a sulfate acceptor substrate, 4-nitrophenol (4-NP), in the presence of [^35S]-3′-phosphoadenosine-5′-phosphosulfate (PAPS), the sulfate donor for the reaction. See, Campbell, N. R. C. et al., Biochem. Pharmacol., 36:1435-1446 (1987). The HSS preparations of recombinant SULT1C1 variant proteins described above were used for the activity studies without any further purification. The protein concentration of each recombinant protein preparation was determined by the dye-binding method of Bradford with bovine serum albumin (BSA) as a standard. […]

B1: wild type: reference human SULT1C1 polypeptide (SEQ ID NO:2, GenBank U66036), recombinantly expressed in COS-1 cells (protein, listed as Homo sapiens)
chain: MALTSDLGKQIKLKEVEGTLLQPATVDNWSQIQSFEAKPDDLLICTYPKAGTTWIQEIVDMIEQNGDVEKCQRAIIQHRHPFIEWARPPQPSGVEKAKAMPSPRILKTHLSTQLLPPSFWENNCKFLYVARNAKDCMVSYYHFQRMNHMLPDPGTWEEYFETFINGKVVWGSWFDHVKGWWEMKDRHQILFLFYEDIKRDPKHEIRKVMQFMGKKVDETVLDKIVQETSFEKMKENPMTNRSTVSKSILDQSISSFMRKGTVGDWKNHFTVAQNERFDEIYRRKMEGTSINFCMEL
Turning to B1, where the note is “apparent Km for PAPS, in the presence of 10 mM 4-NP, six PAPS concentrations 0.0625 μM to 2 μM”, the Km (usually the concentration of substrate that gives half-maximal velocity) was 770 ± 40 nM. Besides, where the note is “recombinant allozyme in COS-1 cytosol, 10 mM 4-NP, 0.4 μM 35S-PAPS, pH 7.4, percentage of wild type SULT1C1 enzyme activity”, the “% WT activity” value is 100%.
